Data as given in patent publication CN113480646A (INST BIOPHYSICS CAS; UNIV PEKING FIRST HOSPITAL, dated 2021).

Tests used:
[1] = target: T1, 体外纯化的组蛋白H1.4(WT H1.4), fusion protein expressed from pET-28a-WT H1.4 (Homo sapiens (Human), UniProt P10412 1-219); assay: Western blot, purified protein
T1 construct: Expressed in E. coli BL21(DE3) and purified; 100 ng was loaded, denatured, for the Western blot; also called 野生型H1.4

[2] = target: T2, 体外纯化的H1.4移码突变蛋白(H1.4 K157E fs*), fusion protein expressed from pET-28a-H1.4 K157E; assay: Western blot, 100 ng purified protein
T2 construct: Expressed in E. coli BL21(DE3) and purified; 100 ng was loaded, denatured, for the Western blot; also called Lys157Glu fs*39; H1.4 K157E移码突变体
T2 chain: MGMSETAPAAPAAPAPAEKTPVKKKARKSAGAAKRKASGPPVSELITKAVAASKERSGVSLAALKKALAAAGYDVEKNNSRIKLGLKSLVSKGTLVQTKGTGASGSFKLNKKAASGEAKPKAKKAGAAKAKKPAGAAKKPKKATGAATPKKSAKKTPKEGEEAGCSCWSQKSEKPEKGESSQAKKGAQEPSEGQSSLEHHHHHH

[3] = target: T3, 内源过表达的组蛋白H1.4(WT H1.4), Flag fusion expressed from pFLAG-CMV-WT H1.4 in NIH 3T3 cells; assay: Western blot, lysate of transfected NIH 3T3 cells
T3 construct: Overexpressed in mouse NIH 3T3 cells; Tested as SDS cell lysate (50 ug total protein) by Western blot; also called 野生型H1.4

B1: 特异性结合H1.4移码突变蛋白的单克隆抗体 (hybridoma cell line A1) (antibody, mouse IgG1, kappa, V domains shown)
VH: QIQLVQSGPELKKPGETVKISCKASGYTFTDYSMQWMKQAPGKGLKWMGWIDTGTGEPSYADDFKGRFAFSLETSASTAYLQINNLKNEDTATYFCARRSYGYFAFWGQGTLVAVSA
VL: DVVMTQTPLSLPVSLGDQASISCRSSQNIVHVNGNTYLEWYLQKPGQSPKLLIYKVSNRFSGVPDRFSGSGSGTEFTLKISRVEAEDLGVYYCFQGSHVPFTFGAGTKLELKR
notes: also called H1.4移码突变抗体; H1.4移码突变的抗体
- binding result [1]: no binding (tested: 100ng)
- binding result [2]: binds
- binding result [3]: no binding (tested: 50μg total lysate protein)
